Source: patent US7488598B2, “Mutant purine nucleoside phosphorylase proteins and cellular delivery thereof” (priority 2001, dated 2009)
Numbering of substitutions follows the chain as printed. In names and notes the source's numbering stands. Several values for one entry are separate records, joined by “and”; a condition that tells them apart may be missing. Identical values can stand only once.

B1: M65I (protein, UniProt P0ABP8 2-239, looked up, variant M65I)
Purine nucleoside …: ATPHINAEMGDFADVVLMPGDPLRAKYIAETFLEDAREVNNVRGMLGFTGTYKGRKISVMGHGIGIPSCSIYTKELITDFGVKKIIRVGSCGAVLPHVKLRDVVIGMGACTDSKVNRIRFKDHDFAAIADFDMVRNAVDAAKALGIDARVGNLFSADLFYSPDGEMFDVMEKYGILGVEMEAAGIYGVAAEFGAKALTICTVSDHIRTHEQTTAAERQTTFNDMIKIALESVLLGDKE
B2: M65Q (protein, UniProt P0ABP8 2-239, looked up, variant M65Q)
Purine nucleoside …: B1 Purine nucleoside … with I64Q
B3: H5N (protein, UniProt P0ABP8 2-239, looked up, variant H5N)
Purine nucleoside …: B1 Purine nucleoside … with H4N, I64M
B4: Wild-type: wild-type E. coli purine nucleoside phosphorylase (PNP) (protein, UniProt P0ABP8 2-239, looked up)
Purine nucleoside …: B1 Purine nucleoside … with I64M
B5: M65A (protein, UniProt P0ABP8 2-239, looked up, variant M65A)
Purine nucleoside …: B1 Purine nucleoside … with I64A
B6: M65V (protein, listed as Escherichia coli)
chain: MATPHINAEMGDFADVVLMPGDPLRAKYIAETFLEDAREVNNVRGMLGFTGTYKGRKISVMGHGVGIPSCSIYTKELITDFGVKKIIRVGSCGAVLPHVKLRDVVIGMGACTDSKVNRIRFKDHDFAAIADFDMVRNAVDAAKALGIDARVGNLFSADLFYSPDGEMFDVMEKYGILGVEMEAAGIYGVAAEFGAKALTICTVSDHIRTHEQTTAAERQTTFNDMIKIALESVLLGDKE

What was measured:
[1] = molecular target: E. coli PNP mutant M65A (Escherichia coli, UniProt P0ABP8, M65A)
[2] = molecular target: wild-type E. coli PNP (Escherichia coli, UniProt P0ABP8); details: Table III; 100 μM substrate; HPLC; average of separate experiments
[3] = molecular target: E. coli PNP mutant M65V (Escherichia coli, UniProt P0ABP8, M65V); details: for M65V percent of wild-type activity: Table II, relative to wild-type PNP of the same line; for M65V, crude extract, rate of cleavage / M65V, pure enzyme, rate of cleavage: Table III, 100 μM substrate, HPLC, average of separate experiments
[4] = test system: human cells in culture
[5] = in vivo, 3 days
[6] = test system: tumor expressing wild-type enzyme; experiment: Anti-tumor response of tumors expressing wild-type enzyme; type: in vivo
[7] = test system: Clostridium perfringens; type: biochemical
[8] = test system: Cc1ncnc2c1ncn2[C@H]1C[C@H](O)[C@@H](CO)O1; experiment: purified protein, by the assay type; details: other: wild-type enzyme
[9] = test system: Cc1ncnc2c1ncn2[C@@H]1O[C@H]([C@H](C)O)[C@@H](O)[C@H]1O; experiment: purified protein, by the assay type; details: other: wild-type enzyme
[10] = test system: Nc1ncnc2c1ncn2[C@@H]1O[C@@H](CO)[C@@H](O)[C@H]1O; experiment: purified protein, by the assay type; details: other: wild-type enzyme
[11] = E. coli PNP enzyme activity with substrate allo-acet; details: Table IV, 0 denotes no measurable activity
[12] = E. coli PNP enzyme activity with substrate MeP-dR; details: for Percent of Control Activity, MeP-dR / Activity, MeP-dR: substrate MeP-dR; for Percent of Control Activity, MeP-dR: percent of wild-type activity; for Activity, MeP-dR: Table IV, 0 denotes no measurable activity
[13] = E. coli PNP enzyme activity with substrate F-araA; details: percent of wild-type activity
[14] = E. coli PNP enzyme activity with substrate talo-acet; details: Table IV, 0 denotes no measurable activity
[15] = E. coli PNP enzyme activity with substrate 5′-NH2; details: Table IV, 0 denotes no measurable activity
[16] = E. coli PNP enzyme activity with substrate α-L-lyxo; details: Table IV, 0 denotes no measurable activity
[17] = E. coli PNP enzyme activity with substrate 5′CONH2; details: Table IV, 0 denotes no measurable activity
[18] = E. coli PNP enzyme activity with substrate 5′-S-phenyl; details: Table IV, 0 denotes no measurable activity
[19] = E. coli PNP enzyme activity with substrate talo-met; details: Table IV, 0 denotes no measurable activity
[20] = E. coli PNP enzyme activity with substrate allo-met; details: Table IV, 0 denotes no measurable activity

Molecule | Wild type, pure enzyme, rate of cleavage [2] | M65V, crude extract, rate of cleavage [3] | Activity, allo-acet [11] [nmol/mg/h] | Percent of Control Activity, MeP-dR [12] [%] | Percent of Control Activity, F-araA [13] [%] | Activity, talo-acet [14] [nmol/mg/h] | Activity, MeP-dR [12] | further results
NC[C@H]1O[C@@H](n2cnc3c(N)ncnc32)[C@H](O)[C@@H]1O [5′-amino-5′-deoxy-Ado, 5′-amino-5′-deoxyadenosine] | 539 nmol/mg/h | 930 nmol/mg/h | – | – | – | – | – | M65A percent of wild-type activity ([1]; Table II, relative to wild-type PNP of the same line): (5%); M65V percent of wild-type activity [3]: (94%)
Cc1ncnc2c1ncn2[C@@H]1O[C@H]([C@H](C)O)[C@@H](O)[C@H]1O [5′-methyl(talo)MeP-R, 9-(6-deoxy-α-L-talofuranosyl)-6-methylpurine] | 915 nmol/mg/h | 75,000 nmole/mg/hr | – | – | – | – | – | less toxic to human cells in culture than F-araA [4]: over 40 fold; human dosage determined from mouse tolerated dose [5]: 600 mg/m^2; activity of mutant M65V PNP compared with wild-type PNP (in words) ([3]; Example 16 analysis): more activity; Activity of M65V mutant greater than wild-type PNP ([3]; M65V versus wild-type PNP): 38 fold; M65V, pure enzyme, rate of cleavage [3]: 76,000 nmole/mg/hr; M65V cleavage of substrate relative to wild-type enzyme cleavage of F-araA ([3]; compared with wild-type enzyme cleaving F-araA): 80 times
C#C[C@H](O)[C@H]1O[C@@H](n2cnc3c(C)ncnc32)[C@H](O)[C@@H]1O [9-(6,7-dideoxy-α-L-hept-6-ynofuranosyl)-6-methylpurine] | – | – | – | – | – | – | – | activity of mutant M65A compared with wild-type enzyme (in words) ([1]; Example 16 analysis): more activity
Nc1nc(F)nc2c1ncn2[C@@H]1O[C@H](CO)[C@@H](O)[C@@H]1O [F-araA, 9-(β-D-arabinofuranosyl)-2-fluoroadenine] | 1,250 nmole/mg/hr | 904 nmol/mg/h | – | – | – | – | – | tumor response [6]: complete responses
Cc1ncnc2c1ncn2[C@H]1C[C@H](O)[C@@H](CO)O1 [MeP-dR, 9-(2-deoxy-β-D-ribofuranosyl)-6-methylpurine] | 528,000 nmole/mg/hr | 535,000 nmole/mg/hr | – | – | – | – | – | enzyme activity converting MeP-dR to MeP [7]: capable of converting MeP-dR to MeP; M65V percent of wild-type activity [3]: (57%); M65V, pure enzyme, rate of cleavage [3]: 593,000 nmole/mg/hr
wild-type E. coli PNP (Escherichia coli K-12) | – | – | – | – | – | – | – | Km [8]: 140 µM and 111 µM; Vmax [8]: 30.2 µmol/min/mg and 18.3 µmol/min/mg; kcat [8]: 12.1 s⁻¹ and 7.33 s⁻¹; Km [9]: 2,980 μM and 3,000 μM; Km [10]: 1,370 μM and 1,340 μM; kcat [10]: 0.133 s⁻¹ and 0.383 s⁻¹
B1 | – | – | 0 | 0.02 | 0.15 | 0 | – | –
B2 | – | – | 0 | 0.6 | 1.0 | 0 | 6050 nmol/mg/h and 4210 nmol/mg/h | Activity, 5′-NH2 [15]: 26 nmol/mg/h and 42 nmol/mg/h
B3 | – | – | 0 | 0.08 | 0.15 | 0 | – | Activity, α-L-lyxo [16]: 16 nmol/mg/h and 11 nmol/mg/h
B4 | – | – | 0 | 100 | 100 | 0 | 740,000 nmoles/mg/hour | Activity, 5′CONH2 [17]: 18 nmol/mg/h; Activity, 5′-NH2 ([15]; listed as WT): 960 nmol/mg/h and 1270 nmol/mg/h; Activity, 5′-S-phenyl [18]: 0 nmol/mg/h; Activity, α-L-lyxo [16]: 4500 nmol/mg/h; Activity, talo-met [19]: 962 nmol/mg/h
B5 | – | – | 0 | 1.5 | 1.6 | – | 12,000 nmoles/mg/hour and 9,400 nmoles/mg/hour | Activity, α-L-lyxo [16]: 1,500 nmoles/mg/hour and 1,070 nmoles/mg/hour
B6 | – | – | 0 | 42 | 37 | – | 524,000 nmoles/mg/hour and 281,000 nmoles/mg/hour | activity toward substrates MeP-dR and F-araA (in words) ([12]; substrates MeP-dR and F-araA, Table I): retained some appreciable level of activity; Activity, 5′-NH2 [15]: 760 nmol/mg/h and 1150 nmol/mg/h; Activity, 5′-S-phenyl [18]: 0 nmol/mg/h; Activity, allo-met [20]: 320 nmol/mg/h and 163 nmol/mg/h
